# Experimental data: patent publication CN115710309A (INST PASTEUR SHANGHAI CAS, dated 2023)
# B1: 单抗2G3 (antibody)
# heavy: QVQLQQPGAELVKPGASVKMSCKASGYTFTTYTIHWLRQTPGQGLEWIGAIYPGIGDTSYNQSFKGKATLTADKSSSTAYMQLSSLTSEDSAVYYCARDGNYAPFTYWGQGTLVTVSAAKTTPPSVYPLAPGSAAQTNSMVTLGCLVKGYFPEPVTVTWNSGSLSSGVHTFPAVLQSDLYTLSSSVTVPSSTWPSETVTCNVAHPASSTKVDKKIVPRDCGCKPCICTVPEVSSVFIFPPKPKDVLTITLTPKVTCVVVDISKDDPEVQFSWFVDDVEVHTAQTQPREEQFNSTFRSVSELPIMHQDWLNGKEFKCRVNSAAFPAPIEKTISKTKGRPKAPQVYTIPPPKEQMAKDKVSLTCMITDFFPEDITVEWQWNGQPAENYKNTQPIMDTDGSYFVYSKLNVQKSNWEAGNTFTCSVLHEGLHNHHTEKSLSHSPGK
# light: DIVMSQSPSSLAVSVGEKVTMSCKSSQSLLYSNNQKNYLAWYQQKPGQSPKLLIYWTSTRESGVPDRFTGSGSGTDFTLTINSVKAEDLAVYYCQQYYRYPLTVGAGTKLELKRADAAPTVSIFPPSSEQLTSGGASVVCFLNNFYPKDINVKWKIDGSERQNGVLNSWTDQDSKDSTYSMSSTLTLTKDEYERHNSYTCEATHKTSTSPIVKSFNRNEC
# B2: 单抗8D3 (antibody, V domains shown)
# VH: EVQLQQSGPELVKPGASVKISCKTSGYTFTEYTMYWVKQSHGKSLEWIGGINPNIGDTSYNQNFKGKATLTVDRSSSTAYMELRSLTSEDSAVYYCARDGYPYYYALDHWGQGTSVTVSS
# VL: DIVMTQSQKFMSTSVGDRVSVTCKASQNVGTNVAWYQQKPGQSPKALIYSTSYRYSGVPDRFTGSGSGTDFTLTISNVQSEDLAEYFCQQYNSYPYTFGGGTKLEIKR
# B3: 单抗3A2 (antibody, V domains shown)
# VH: QVTLKESGPGILQPSQTLSLTCSFSGFSLSTSGMGVSWIRQPSGKGLEWLAHIYWDDDKRYNPSLKSRLTISKDTSSSQVFLKITSVDTVDTATYYCARRGPLITTDGTFDVWGAGTTVTVSS
# VL: DIVMTQSRKFMSTSVGDRVSITCKASQDVGTSVAWYQQKPGQSPKLLIYWASTRHTGVPDRFTGSGSGTDFTLTINSVQSEDLADYFCQQYSSYPYTFGGGTKLEMK
# Legend:
# Test in all cases: cell-based or functional assay
# SARS-CoV-2 S蛋白 (野生型假病毒) [1] = molecular target: SARS-CoV-2 S蛋白 (野生型假病毒) (SARS-CoV-2, UniProt P0DTC2 14-1273)
# [2] = molecular target: SARS-CoV-2活病毒nCoV-SH01株的S蛋白 (SARS-CoV-2, UniProt P0DTC2 14-1273)
# SARS-CoV-2 S蛋白 (野生型假病毒) [3] = molecular target: SARS-CoV-2 S蛋白 (野生型假病毒) (SARS-CoV-2, UniProt P0DTC2 14-1273); remark: listed apart in the source
binder,measurement,setting,value
B1,假病毒中和试验 半数抑制浓度(IC50),SARS-CoV-2 S蛋白 (野生型假病毒) [1],0.007 µg/mL
same,活病毒中和 IC50,[2],0.032 µg/mL
B2,假病毒中和试验 半数抑制浓度(IC50),SARS-CoV-2 S蛋白 (野生型假病毒) [1],0.007 µg/mL
same,活病毒中和 IC50,[2],0.071 µg/mL
B3,假病毒中和试验 半数抑制浓度(IC50),SARS-CoV-2 S蛋白 (野生型假病毒) [3],0.049 µg/mL
